According to patent US20170157149A1 (REGENTS OF THE UNIVERSITY OF MICHIGAN, published 2017):
No end group written: not given here.

Target: T1, scavenger receptor class BI (SR-BI) (UniProt Q8WTV0 1-552, limits assumed)
T1 sequence (looked up): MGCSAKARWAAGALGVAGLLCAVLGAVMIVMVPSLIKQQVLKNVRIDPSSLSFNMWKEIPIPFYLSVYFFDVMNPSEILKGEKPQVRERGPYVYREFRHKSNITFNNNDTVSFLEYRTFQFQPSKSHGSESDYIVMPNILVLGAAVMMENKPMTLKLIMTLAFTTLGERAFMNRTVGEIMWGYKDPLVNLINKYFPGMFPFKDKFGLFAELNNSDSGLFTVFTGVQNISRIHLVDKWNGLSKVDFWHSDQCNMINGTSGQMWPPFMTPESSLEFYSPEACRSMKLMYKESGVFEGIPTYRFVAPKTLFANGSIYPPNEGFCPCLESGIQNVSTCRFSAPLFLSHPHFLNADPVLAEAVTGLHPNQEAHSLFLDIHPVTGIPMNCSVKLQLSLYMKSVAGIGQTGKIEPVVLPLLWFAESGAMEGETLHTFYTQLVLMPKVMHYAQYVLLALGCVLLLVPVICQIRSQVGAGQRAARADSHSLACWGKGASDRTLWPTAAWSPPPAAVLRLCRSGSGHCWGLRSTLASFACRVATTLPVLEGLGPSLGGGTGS
Assay: cell-based or functional assay

blocking of uptake of DIO labeled HDL nanoparticles by 10 fold excess of HDL (fluorescence microscopy): > 90%
B1: DIO labeled HDL nanoparticles (synthetic HDL of 22 A peptide and lipids) (other)
peptide: PVLDLFRELLNELLEALKQKLK
modifications: also: sHDL lipid nanoparticle with lipids, DIO tracer label in particle, acetate salt
